Measurements published in EP1798242B1.

Tests used:
[1] = molecular target: récepteur à l'insuline IR exprimé sur des cellules d'insectes Sf9 (baculovirus) (UniProt P06213); assay: FACScan on Sf9 insect cells expressing IR (baculovirus), secondary antibody alone; Tableau 1, column Cellules IR +
[2] = molecular target: IGF-IR exprimé sur des cellules d'insectes Sf9 (baculovirus) (UniProt P08069); assay: FACScan on Sf9 insect cells expressing IGF-IR (baculovirus), secondary antibody alone; Tableau 1, column Cellules IGF1R +
[3] = molecular target: IGF-IR exprimé sur des cellules d'insectes Sf9 (baculovirus) (UniProt P08069); assay: FACScan on Sf9 insect cells expressing IGF-IR (baculovirus), anti-mouse FITC secondary; Tableau 1, column Cellules IGF1R +
[4] = molecular target: récepteur à l'insuline IR exprimé sur des cellules d'insectes Sf9 (baculovirus) (UniProt P06213); assay: FACScan on Sf9 insect cells expressing IR (baculovirus), anti-mouse FITC secondary; Tableau 1, column Cellules IR +

MFI (Moyenne de l'intensité de fluorescence) [1]	MFI (Moyenne de l'intensité de fluorescence) [2]	MFI (Moyenne de l'intensité de fluorescence) [3]	MFI (Moyenne de l'intensité de fluorescence) [4]	Substance
13	9			Anti-souris FITC (antibody)
		35	32	AcM commercial αIR3 (anti-IGF-IR) (antibody)
